Reference: US7135457 (CYTOGEN, dated 2006)

T1: human PEPT1 (hPEPT1) receptor domain, amino acid residues 391-571, His-tag fusion protein (human, UniProt P46059 391-571)
T1 construct: Expressed as His-tag fusion, purified under denaturing conditions, coated on plates; not shown: poly-histidine tag (pET His-tag) at the NH2-terminal end
T1 sequence: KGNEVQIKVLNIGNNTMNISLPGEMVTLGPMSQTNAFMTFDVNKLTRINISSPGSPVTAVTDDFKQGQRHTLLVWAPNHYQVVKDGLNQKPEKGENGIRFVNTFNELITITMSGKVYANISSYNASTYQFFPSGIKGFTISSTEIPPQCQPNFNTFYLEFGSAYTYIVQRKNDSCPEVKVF

B1: phage SNi38 (peptide)
peptide: RGAADQRRGWSENLGLPRVGWDAIAHNSYTFTSRRPRPP
notes: pIII and flanks not included
B2: phage SNi34 (peptide)
peptide: SPCGGSWGRFMQGGLFGGRTDGCGAHRNRTSASLEPPSSDY
notes: pIII and flanks not included
B3: phage SNi10 (peptide)
peptide: RVGQCTDSDVRRPWARSCAHQGCGAGTRNSHGCITRPLRQASAH
notes: pIII and flanks not included
B4: phage SNi28 (peptide)
peptide: SHSGGMNRAYGDVFRELRDRWNATSHHTRPTPQLPRGPN
notes: pIII and flanks not included
B5: phage S15 (peptide)
peptide: RSGAYESPDGRGGRSYVGGGGGCGNIGRKHNLWGLRTASPACWD
notes: pIII and flanks not included
B6: phage PAX35 (peptide)
peptide: RSITDGGINEVDLSSVSNVLENANSHRAYRKHRPTLKRP
notes: pIII and flanks not included
B7: phage PAX15 (peptide)
peptide: SYCRVKGGGEGGHTDSNLARSGCGKVARTSRLQHINPRATPPSR
notes: pIII and flanks not included
B8: phage PAX46 (peptide)
peptide: SRCTDNEQCPDTGTRSRSVSNARYFSSRLLKTHAPHRP
notes: pIII and flanks not included
B9: phage 5PAX12 (peptide)
peptide: RGWKCEGSQAAYGDKDIGRSRGCGSITKNNTNHAHPSHGAVAKI
notes: pIII and flanks not included
B10: phage P31 (peptide)
peptide: SARDSGPAEDGSRAVRLNGVENANTRKSSRSNPRGRRHP
notes: pIII and flanks not included
B11: phage PAX17 (peptide)
peptide: SQVDSFRNSFRWYEPSRALCHGCGKRDTSTTRIHNSPSDSYPTR
notes: pIII and flanks not included
B12: phage PAX14 (peptide)
peptide: RTFENDGLGVGRSIQKKSDRWYASHNIRSHFASMSPAGK
notes: pIII and flanks not included
B13: phage PAX43 (peptide)
peptide: RWCEKHKFTAARCSAGAGFERDASRPPQPAHRDNTNRNA
notes: pIII and flanks not included
B14: phage PAX45 (peptide)
peptide: SFQVYPDHGLERHALDGTGPLYAMPGRWIRARPQNRDRQ
notes: pIII and flanks not included
B15: phage P90 (peptide)
peptide: SSADAEKCAGSLLWWGRQNNSGCGSPTKKHLKHRNRSQTSSSSH
notes: pIII and flanks not included
B16: phage PAX18 (peptide)
peptide: SFLRFQSPRFEDYSRTISRLRNATNPSNVSDAHNNRALA
notes: pIII and flanks not included
B17: phage PAX40 (peptide)
peptide: RASTQGGRGVAPEFGASVLGRGCGSATYYTNSTSCKDAMGHNYS
notes: pIII and flanks not included
B18: phage PAX9 (peptide)
peptide: RWPSVGYKGNGSDTIDVHSNDASTKRSLIYNHRRPLFP
notes: pIII and flanks not included
B19: phage PAX16 (peptide)
peptide: SWTRWGKHTHGGFVNKSPPGKNATSPYTDAQLPSDQGPP
notes: pIII and flanks not included
B20: phage PAX38 (peptide)
peptide: SSKVSSPRDPTVPRKGGNVDYGCGHRSSARMPTSALSSITKCYT
notes: pIII and flanks not included

Biological target: T2, human sucrase-isomaltase complex (hSI) receptor domain, amino acid residues 272-667, His-tag fusion protein (human, UniProt P14410 272-667)
T2 construct: Expressed as His-tag fusion, purified under denaturing conditions (urea or guanidine HCl), coated on plates; also called hS1 receptor domain; not shown: poly-histidine tag (pET His-tag) at the NH2-terminal end
Assay: phage ELISA, coated hSI domain

T2 sequence (P14410 272-667, one chain of several): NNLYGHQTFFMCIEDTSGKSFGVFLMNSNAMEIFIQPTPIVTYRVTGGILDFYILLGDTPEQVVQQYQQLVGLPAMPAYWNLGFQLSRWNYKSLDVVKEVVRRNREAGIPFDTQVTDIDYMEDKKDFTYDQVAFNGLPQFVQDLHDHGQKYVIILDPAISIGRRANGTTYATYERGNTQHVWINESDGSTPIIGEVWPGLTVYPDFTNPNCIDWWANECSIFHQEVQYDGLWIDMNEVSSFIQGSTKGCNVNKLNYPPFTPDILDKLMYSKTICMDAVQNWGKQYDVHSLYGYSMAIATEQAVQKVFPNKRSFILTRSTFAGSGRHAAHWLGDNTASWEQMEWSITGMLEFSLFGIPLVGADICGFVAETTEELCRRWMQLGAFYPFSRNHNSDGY

Binder	OD [OD 650 nm]
B1	0.466
B2	0.761
B3	0.57
B4	0.942
B5	0.478

Biological target: T1, human PEPT1 (hPEPT1) receptor domain, …
Assay: phage ELISA, coated hPEPT1 domain
Procedure: (§1) 6.6. Receptor ELISA Procedure 96 well plates were coated overnight with GIT receptor, BSA and, optionally, IDE (insulin degrading enzyme, an irrelevant His-fusion protein) or hTF. The plates were blocked for one hour with 0.5% BSA-PBS. After clarification, the amplified phage were diluted 1:100 in 1% BSA plus 0.05% Tween 20 in PBS and added to the plates. Following incubation of the plates on a rotator for 1 to 2 hours, the plates were washed 5 times with 1% BSA plus 0.05% Tween 20 in PBS. […] After the plates were washed 5 times, as described above, TMB substrate was added to the wells. The plates were read at 650 nm absorbance.

Binder	OD [OD 650 nm]
B6	0.474
B7	0.301
B8	0.429
B9	0.227
B10	0.807
B11	0.514
B12	1.1
B13	0.345
B14	0.419
B15	1.12
B16	0.416
B17	0.461
B18	0.312
B19	0.648
B20	0.292

Biological target: T2, human sucrase-isomaltase complex (hSI) …
Assay: phage ELISA, OD on hSI over OD on BSA

Binder	hSI/BSA [ratio]
B1	6
B2	7
B3	11
B4	8
B5	9

Biological target: T1, human PEPT1 (hPEPT1) receptor domain, …
Assay: phage ELISA, OD on hPEPT1 over OD on BSA
Procedure: as §1

Binder	PEPT1/BSA [ratio]
B6	7
B7	4
B8	6
B9	6
B10	11
B11	5
B12	8
B13	5
B14	5
B15	9
B16	5
B17	6
B18	4
B19	4
B20	5
